Assay results: US20240343800A1 (Merck KGaA, published 2024)

B1: bispecific TCE 69A02 in Format 1A (bispecific antibody)
heavy 1: EVQLVESGGGLVQPGGSLRLSCAASGFTFNTYAMNWVRQAPGKGLEWVARIRSKYNNYATYYADSVKDRFTISRDDSKNTLYLQMNSLRAEDTAVYYCVRHGNFGNSYVSWFAYWGQGTMVTVSSASTKGPSVFPLAPSSKSTSGGTAALGCLVKDYFPEPVTVSWNSGALTSGVHTFPAVLQSSGLYSLSSVVTVPSSSLGTQTYICNVNHKPSNTKVDKKVEPKSCDKTHTCPPCPAPPVAGPSVFLFPPKPKDTLMISRTPEVTCVVVDVSHEDPEVKFNWYVDGVEVHNAKTKPREEQYNSTYRVVSVLTVLHQDWLNGKEYKCAVSNKALAAPIEKTISKAKGQPFRPEVHLLPPSREEMTKNQVSLTCLARGFYPKDIAVEWESNGQPENNYKTTPSRQEPSQGTTTFAVTSKLTVDKSRWQQGNVFSCSVMHEALHNHYTQKTISLSPGK
heavy 2: ETTLTQSPATLSVSPGETATLSCRASQSVSSNLAWYQQKPGQAPRLLIYGASTRATGIPATFSGSGSGTEFTLTISSLQSEDFAIYYCQQYKNWPPAFGGGTELEIKGGGGSGGGGSGGGGSGGGGSQVTLKESGPTLVKPTQTLTLTCSFSGFSITTSGVSVGWIRQPPGKALEWLALIYWDDDKRYSPSLKSRLTITRDTSKNQVVLTMTNMDPVDTATYYCAHAPRYTPGGYFDYWGQGTLVTVSSEPKSSDKTHTCPPCPAPPVAGPSVFLFPPKPKDTLMISRTPEVTCVVVDVSHEDPEVKFNWYVDGVEVHNAKTKPREEQYNSTYRVVSVLTVLHQDWLNGKEYKCAVSNKALAAPIEKTISKAKGQPREPQVYTLPPPSEELALNELVTLTCLVKGFYPSDIAVEWLQGSQELPREKYLTWAPVLDSDGSFFLYSILRVAAEDWKKGDTFSCSVMHEALHNRFTQKSLDRSPGKGGGGSGGGGSGGGGSGGGGSETTLTQSPATLSVSPGETATLSCRASQSVSSNLAWYQQKPGQAPRLLIYGASTRATGIPATFSGSGSGTEFTLTISSLQSEDFAIYYCQQYKNWPPAFGGGTELEIKGGGGSGGGGSGGGGSGGGGSQVTLKESGPTLVKPTQTLTLTCSFSGFSITTSGVSVGWIRQPPGKALEWLALIYWDDDKRYSPSLKSRLTITRDTSKNQVVLTMTNMDPVDTATYYCAHAPRYTPGGYFDYWGQGTLVTVSS
light: QAVVTQEPSLTVSPGGTVTLTCRSSTGAVTTSNYANWVQQKPGQAPRGLIGGTNKRAPGTPARFSGSLLGGKAALTLSGVQPEDEAEYYCALWYSNLWVFGGGTKLTVLGQPKAAPSVTLFPPSSEELQANKATLVCLISDFYPGAVTVAWKADSSPVKAGVETTTPSKQSNNKYAASSYLSLTPEQWKSHRSYSCQVTHEGSTVEKTVAPTECS
notes: also called 69A02 TCE 1A; 69A02x1F3.5
B2: 82H02 scFv-Fc (Fc fusion)
VH: EVQLLESGGGLVQPGGSLRLSCAASGFTFTSYAMSWVRQAPGKGLEWVSTISGSGGGTYYTDSVKGRFTISRDNSKNTLYLQMNSLRAEDTAVYYCAQGSSIFDYWGQGTLVTVSS
VL: EIVLTQSPATLSLSPGERATLSCRASQSVSSYLAWYQQKPGQAPRLLIYDASNRATGIPARFSGSGSGTDFTLTISSLEPEDFAVYYCQQRSNWPPCTFGQGTRLEIK
notes: scFv-Fc format; also called unlabelled 82H02 scFv-Fc

Assays:
[1] = biological target: T1, human CD3 (on Jurkat T cells or human CD8+ T cells) (human, UniProt P07766 23-207; P09693 23-182; P04234 22-171; P20963 22-164); assay: flow cytometry, Jurkat T cells
T1 construct: Entries are printed with signal peptides; also called huCD3; CD3ε
Description: (§1) After washing twice with 200 μL of phosphate buffered saline (PBS) by centrifugation at 500×g for 5 minutes at room temperature, the cells were resuspended in 100 μL of Live/Dead fixable green working buffer (ThermoFisher Scientific, Cat No: L23101; one vial of Live/Dead fixable green powder was dissolved into 50 μL of DMSO and 1 μL of dissolved Live/Dead fixable green was added to 1 mL of PBS to prepare the working buffer). After 15-minutes of incubation at room temperature, the cells were washed twice with 200 μL of PBS by centrifugation at 500×g for 5 minutes at room temperature and resuspended in […] of 10% goat serum in BD staining buffer (BD Biosciences, Cat No: 554657). […] The plates were then covered with foil to avoid direct light and incubated for 60 minutes at 4° C. […] After incubating for 30 minutes at 4° C., the cells were washed twice with 200 μL of PBS by centrifugation at 500×g for 5 minutes at room temperature and resuspended into 100 μL of fixation buffer (BioLegend, Cat No: 420801). The samples were then analyzed on a flow cytometer for binding signal using FlowJo software. ROR and CD3 binding EC₅₀s (concentration vs mean fluorescence intensity (MFI)) for reference molecules and test bispecific TCEs were obtained using 4-parameter non-linear regression curve fitting in GraphPad Prism.

[2] = biological target: T2, human ROR1 (on cells) (human, UniProt Q01973 30-937); assay: cell-based or functional assay
[3] = biological target: T2, human ROR1 (on cells); assay: flow cytometry, MDA-MB-231 cells; reference: Ref. Frz-binding TCE
Description: as §1

[4] = biological target: T2, human ROR1 (on cells); assay: flow cytometry, MDA-MB-231 cells
Description: as §1

[5] = biological target: T3, cynomolgus CD3 (on cynomolgus pan-T cells) (cynomolgus, UniProt Q95LI5 22-198); assay: flow cytometry, cynomolgus pan-T cells
T3 construct: whole, on cells
Description: as §1

[6] = biological target: T2, human ROR1 (on cells); assay: cell-based or functional assay; remark: listed apart in the source
[7] = biological target: T2, human ROR1 (on cells); assay: cell-based or functional assay; remark: listed apart in the source
[8] = biological target: T2, human ROR1 (on cells); assay: cell-based or functional assay; remark: listed apart in the source
[9] = biological target: T2, human ROR1 (on cells); assay: flow cytometry competition on NCCIT cells: pre-treatment with titrated unlabelled scFv-Fc, then 146 nM 82H02 scFv-Fc labelled with Alexa Fluor 647-conjugated Zenon fragments

T3 sequence (Q95LI5 22-198): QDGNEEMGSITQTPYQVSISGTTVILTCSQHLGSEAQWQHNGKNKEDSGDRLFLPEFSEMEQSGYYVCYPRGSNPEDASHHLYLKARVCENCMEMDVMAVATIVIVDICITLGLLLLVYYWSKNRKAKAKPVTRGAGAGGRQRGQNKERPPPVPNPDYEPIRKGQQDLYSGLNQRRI
T1 sequence (P07766 23-207 limits assumed, chain 1 of 4): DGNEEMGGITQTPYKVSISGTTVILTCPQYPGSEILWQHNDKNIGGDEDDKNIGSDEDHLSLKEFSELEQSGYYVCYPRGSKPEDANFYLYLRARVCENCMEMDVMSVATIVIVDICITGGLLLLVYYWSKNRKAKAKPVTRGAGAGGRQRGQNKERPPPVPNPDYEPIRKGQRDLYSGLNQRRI
T1 sequence (P09693 23-182 limits assumed, chain 2 of 4): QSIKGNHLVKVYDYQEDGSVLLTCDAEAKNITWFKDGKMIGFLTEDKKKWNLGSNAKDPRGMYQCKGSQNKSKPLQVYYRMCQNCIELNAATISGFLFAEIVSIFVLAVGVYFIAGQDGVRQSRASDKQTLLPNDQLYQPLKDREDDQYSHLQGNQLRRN
T1 sequence (P04234 22-171 limits assumed, chain 3 of 4): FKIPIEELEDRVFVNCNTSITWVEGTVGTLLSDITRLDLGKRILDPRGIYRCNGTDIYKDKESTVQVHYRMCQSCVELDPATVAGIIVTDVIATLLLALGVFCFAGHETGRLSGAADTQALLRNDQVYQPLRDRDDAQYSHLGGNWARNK
T1 sequence (P20963 22-164 limits assumed, chain 4 of 4): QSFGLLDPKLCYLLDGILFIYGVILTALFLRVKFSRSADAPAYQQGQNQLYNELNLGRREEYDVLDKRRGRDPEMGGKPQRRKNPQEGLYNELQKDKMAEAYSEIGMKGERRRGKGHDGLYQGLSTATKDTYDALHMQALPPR

Row | Binder | EC50 [1] [nM] | EC50 of IFNγ release, human CD8+ T cells + ROR1+ MDA-MB-231 [2] [nM] | fold higher apparent binding affinity [3] [fold] | EC50 [4] [nM] | EC50 [5] [nM] | IFNγ release EC50, PBMCs + ROR1+ MDA-MB-231 cells [6] [nM] | TDCC EC50, PBMCs + ROR1+ MDA-MB-231 cells [7] [nM] | EC50 of target cell killing (TDCC), human CD8+ T cells + ROR1+ MDA-MB-231 [8] [nM] | IC50 (read off the curve) [9] [nM]
1 | B1 | 10.4 | 0.0215 | > 30 | 0.23 | 13.4 | 0.0876 | 0.0194 | 0.0202 | –
2 | B2 | – | – | – | – | – | – | – | – | ~2
